Measured values as given in article PMC11266248.
Values joined by “and” are separate entries in the source; they are usually repeats but may differ in a detail not shown here. Equal entries are not always repeated.

How the values were obtained:
[1] = molecular target: recombinant factor H-like protein 1 (human) (UniProt P08603); test: SPR; Biacore T100, CM5 chip; FH (750 RU), rFHL-1 or rFH15-20 (200 RU) amine-coupled as ligands; CspZ or FhbA as analytes; PBS with 0.05% Tween20, 25 °C, 30 µl/min; single-cycle and multiple-cycle kinetics, Langmuir 1:1 model; in duplicate
Sequence of recombinant factor H-like protein 1 (human) (P08603 other isoform, or with tags, fused parts or gaps): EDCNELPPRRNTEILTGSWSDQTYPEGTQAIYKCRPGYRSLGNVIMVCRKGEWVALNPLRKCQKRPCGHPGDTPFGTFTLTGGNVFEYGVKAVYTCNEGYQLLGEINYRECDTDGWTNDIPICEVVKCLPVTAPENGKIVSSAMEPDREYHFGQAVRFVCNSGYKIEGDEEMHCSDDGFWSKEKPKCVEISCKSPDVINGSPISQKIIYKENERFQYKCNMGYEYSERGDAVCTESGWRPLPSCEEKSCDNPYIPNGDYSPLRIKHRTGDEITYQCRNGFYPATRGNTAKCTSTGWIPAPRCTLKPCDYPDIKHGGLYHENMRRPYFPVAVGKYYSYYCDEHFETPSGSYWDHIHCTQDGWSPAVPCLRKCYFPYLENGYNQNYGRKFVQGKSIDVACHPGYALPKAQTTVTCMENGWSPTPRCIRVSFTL

[2] = molecular target: factor H binding A (FhbA) from Borrelia hermsii (Borrelia hermsii); test: LC-HRMS (ESI-Q-TOF); ACE C4 column, 0.1% formic acid/acetonitrile gradient, ESI+, deconvolution with UniDec
[3] = molecular target: factor H binding A (FhbA) from Borrelia hermsii (Borrelia hermsii); test: SEC-MALS; Superdex 200 increase 10/300 GL in PBS, 0.7 mL/min; 100 µL injected at about 3.75 mg/mL (CspZ) or 2.50 mg/mL (FhbA)
[4] = molecular target: purified human complement factor H from human plasma/serum (human) (UniProt P08603); test: SPR; Biacore T100, CM5 chip; FH (750 RU), rFHL-1 or rFH15-20 (200 RU) amine-coupled as ligands; CspZ or FhbA as analytes; PBS with 0.05% Tween20, 25 °C, 30 µl/min; single-cycle and multiple-cycle kinetics, Langmuir 1:1 model; in duplicate
Sequence of purified human complement factor H from human plasma/serum (human) (P08603 19-1231): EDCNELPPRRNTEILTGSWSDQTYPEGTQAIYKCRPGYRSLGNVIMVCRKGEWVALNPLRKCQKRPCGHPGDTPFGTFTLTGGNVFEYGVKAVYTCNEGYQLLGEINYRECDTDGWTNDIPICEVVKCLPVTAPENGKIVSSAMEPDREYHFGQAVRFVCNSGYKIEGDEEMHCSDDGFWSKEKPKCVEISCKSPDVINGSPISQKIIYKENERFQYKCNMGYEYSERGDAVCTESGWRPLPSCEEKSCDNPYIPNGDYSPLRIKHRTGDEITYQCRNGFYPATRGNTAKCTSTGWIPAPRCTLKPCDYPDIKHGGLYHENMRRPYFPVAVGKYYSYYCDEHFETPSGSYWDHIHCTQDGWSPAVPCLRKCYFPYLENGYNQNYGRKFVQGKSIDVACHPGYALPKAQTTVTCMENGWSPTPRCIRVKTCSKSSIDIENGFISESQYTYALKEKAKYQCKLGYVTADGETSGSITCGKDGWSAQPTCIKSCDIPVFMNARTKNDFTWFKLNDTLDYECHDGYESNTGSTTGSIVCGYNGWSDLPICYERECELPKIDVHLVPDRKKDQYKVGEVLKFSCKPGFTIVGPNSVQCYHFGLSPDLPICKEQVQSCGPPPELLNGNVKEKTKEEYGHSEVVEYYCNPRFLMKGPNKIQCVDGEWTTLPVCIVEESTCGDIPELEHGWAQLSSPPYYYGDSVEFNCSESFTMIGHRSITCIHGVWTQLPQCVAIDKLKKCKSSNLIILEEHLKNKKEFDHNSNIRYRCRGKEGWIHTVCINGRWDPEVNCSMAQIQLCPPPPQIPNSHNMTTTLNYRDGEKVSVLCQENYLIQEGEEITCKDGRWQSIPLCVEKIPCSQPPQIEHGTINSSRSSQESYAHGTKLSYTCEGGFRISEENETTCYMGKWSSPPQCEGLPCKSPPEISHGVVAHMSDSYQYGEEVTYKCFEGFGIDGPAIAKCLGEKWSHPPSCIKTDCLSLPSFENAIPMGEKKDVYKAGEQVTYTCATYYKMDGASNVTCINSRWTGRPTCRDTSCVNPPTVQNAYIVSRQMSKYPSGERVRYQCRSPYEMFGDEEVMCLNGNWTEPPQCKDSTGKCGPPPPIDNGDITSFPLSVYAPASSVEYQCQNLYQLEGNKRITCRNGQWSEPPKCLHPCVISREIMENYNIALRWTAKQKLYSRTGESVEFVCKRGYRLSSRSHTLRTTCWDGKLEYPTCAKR

[5] = molecular target: recombinant factor H SCR15-20 (human) (UniProt P08603); test: as above
Sequence of recombinant factor H SCR15-20 (human) (P08603 860-1231): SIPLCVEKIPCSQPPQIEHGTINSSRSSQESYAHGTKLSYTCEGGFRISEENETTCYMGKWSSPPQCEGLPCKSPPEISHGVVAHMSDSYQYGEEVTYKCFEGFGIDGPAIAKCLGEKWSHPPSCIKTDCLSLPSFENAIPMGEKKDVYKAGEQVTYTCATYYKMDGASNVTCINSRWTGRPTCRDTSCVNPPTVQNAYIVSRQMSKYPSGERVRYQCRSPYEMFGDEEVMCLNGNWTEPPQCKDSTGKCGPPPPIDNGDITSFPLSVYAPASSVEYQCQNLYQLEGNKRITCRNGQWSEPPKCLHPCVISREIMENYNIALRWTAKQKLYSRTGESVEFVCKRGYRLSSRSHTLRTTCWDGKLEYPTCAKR

CspZ from Borrelia burgdorferi sensu stricto (complement regulator-acquiring surface protein 2) (from UniProt O50665 1-236) (natural protein)
Kd [1]: 0.044 nM
koff [1]: 3.1e-05 s⁻¹
kon [1]: 720000 M⁻¹ s⁻¹

factor H binding A (FhbA) from Borrelia hermsii (natural protein)
stoichiometry N [2]: 2
representation of the dimer peak (46.2 kDa) in the sample (%) [3]: 27%
representation of the pentamer peak (119.0 kDa) in the sample (%) [3]: 1%
representation of the trimer peak (71.7 kDa) in the sample (%) [3]: 6%
stoichiometry N [3]: 2 and 3 and 5
Kd [4]: 1.09 nM
koff [4]: 0.000268 s⁻¹
kon [4]: 246000 M⁻¹ s⁻¹
Kd [5]: 3.37 nM
koff [5]: 0.000266 s⁻¹
kon [5]: 85400 M⁻¹ s⁻¹
Kd [1]: 42.9 nM
koff [1]: 6.74e-05 s⁻¹
kon [1]: 1570 M⁻¹ s⁻¹
